Laboratory results reported in PMC9482650, “Quantitative fragmentomics allow affinity mapping of interactomes” (Nature Communications, 2022).

T1: LRRC7, Q96NW7
T1 sequence (Q96NW7 1440-1537, limits assumed, looked up): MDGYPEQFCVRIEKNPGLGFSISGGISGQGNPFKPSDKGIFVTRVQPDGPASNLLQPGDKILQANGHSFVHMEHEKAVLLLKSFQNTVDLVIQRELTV

T2: GRIP1_7, Q9Y3R0
T2 sequence (Q9Y3R0 999-1096, limits assumed, looked up): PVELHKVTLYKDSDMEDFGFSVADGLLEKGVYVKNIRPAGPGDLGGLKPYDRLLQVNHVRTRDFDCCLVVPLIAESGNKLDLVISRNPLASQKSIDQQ

T3: PARD3B_1, Q8TEW8
T3 sequence (Q8TEW8 196-299, limits assumed, looked up): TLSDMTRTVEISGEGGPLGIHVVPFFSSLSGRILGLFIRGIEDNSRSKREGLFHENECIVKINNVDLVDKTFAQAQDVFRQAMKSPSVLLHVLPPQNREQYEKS

T4: LNX2_2, Q8N448
T4 sequence (Q8N448 334-432, limits assumed, looked up): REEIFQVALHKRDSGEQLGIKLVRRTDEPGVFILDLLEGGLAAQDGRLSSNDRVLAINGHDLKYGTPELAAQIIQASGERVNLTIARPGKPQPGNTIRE

T5: DFNB31_3, Q9P202
T5 sequence (Q9P202 811-907, limits assumed, looked up): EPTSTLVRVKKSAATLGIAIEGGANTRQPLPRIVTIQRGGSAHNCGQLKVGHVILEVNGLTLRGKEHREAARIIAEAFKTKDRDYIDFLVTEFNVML

T6: SIPA1L2, Q9P2F8
T6 sequence (Q9P2F8 945-1036, limits assumed, looked up): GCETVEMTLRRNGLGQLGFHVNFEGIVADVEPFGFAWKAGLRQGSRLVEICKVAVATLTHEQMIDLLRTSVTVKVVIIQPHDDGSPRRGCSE

T7: TIAM2, Q8IVF5
T7 sequence (Q8IVF5 885-986, limits assumed, looked up): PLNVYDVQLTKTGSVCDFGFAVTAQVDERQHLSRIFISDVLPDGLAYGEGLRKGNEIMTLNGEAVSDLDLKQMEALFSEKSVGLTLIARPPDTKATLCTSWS

T8: GRIP1_4, Q9Y3R0
T8 sequence (Q9Y3R0 467-571, limits assumed, looked up): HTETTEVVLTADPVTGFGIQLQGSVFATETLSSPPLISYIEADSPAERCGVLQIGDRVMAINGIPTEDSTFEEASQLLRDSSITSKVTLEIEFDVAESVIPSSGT

T9: DLG3_1, Q92796
T9 sequence (Q92796 125-227, limits assumed, looked up): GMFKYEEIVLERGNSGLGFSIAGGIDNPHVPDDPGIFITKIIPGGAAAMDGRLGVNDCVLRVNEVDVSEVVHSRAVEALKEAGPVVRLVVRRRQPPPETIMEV

T10: MPDZ_10, O75970
T10 sequence (O75970 1624-1722, limits assumed, looked up): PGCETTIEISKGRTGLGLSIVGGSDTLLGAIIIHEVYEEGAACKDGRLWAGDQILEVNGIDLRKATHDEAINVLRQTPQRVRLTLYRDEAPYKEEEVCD

T11: PCLO, Q9Y6V0
T11 sequence (Q9Y6V0 4491-4600, limits assumed, looked up): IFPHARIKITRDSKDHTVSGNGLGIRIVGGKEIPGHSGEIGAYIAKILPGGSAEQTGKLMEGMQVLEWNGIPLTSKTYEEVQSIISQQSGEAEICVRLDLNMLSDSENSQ


target: T1, LRRC7, Q96NW7; test: holdup assay; parameters: key: below the threshold = too weak to quantify, mostly under pKd 3.1 to 4; settings: plain residues with an end cap or a label only (N-terminal biotin on a linker: ado-ado)

pKd | Binder
below the threshold | GDGLDDEIAV [NOS1AP, O75052]
below the threshold | NRVDSKETEC [ADAM17, P78536]

target: T2, GRIP1_7, Q9Y3R0; test: holdup assay; parameters: key: below the threshold = too weak to quantify, mostly under pKd 3.1 to 4; settings: plain residues with an end cap or a label only (N-terminal biotin on a linker: ado-ado)

pKd | Binder
below the threshold | GDGLDDEIAV [NOS1AP, O75052]
below the threshold | NRVDSKETEC [ADAM17, P78536]

target: AHNAK1, Q09666; test: holdup assay; parameters: key: below the threshold = too weak to quantify, mostly under pKd 3.1 to 4; settings: plain residues with an end cap or a label only (N-terminal biotin on a linker: ado-ado)
Sequence (Q09666 4-100): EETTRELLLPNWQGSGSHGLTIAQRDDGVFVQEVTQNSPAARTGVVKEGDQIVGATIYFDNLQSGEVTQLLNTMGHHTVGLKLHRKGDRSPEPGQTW

pKd | Binder
below the threshold | GDGLDDEIAV [NOS1AP, O75052]
below the threshold | NRVDSKETEC [ADAM17, P78536]

target: TJP1_2, Q07157; test: holdup assay; parameters: key: below the threshold = too weak to quantify, mostly under pKd 3.1 to 4; settings: plain residues with an end cap or a label only (N-terminal biotin on a linker: ado-ado)
Sequence (Q07157 181-274): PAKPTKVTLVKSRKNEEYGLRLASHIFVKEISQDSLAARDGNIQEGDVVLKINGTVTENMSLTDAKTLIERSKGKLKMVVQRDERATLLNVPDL

pKd | Binder
below the threshold | GDGLDDEIAV [NOS1AP, O75052]
below the threshold | NRVDSKETEC [ADAM17, P78536]

target: T3, PARD3B_1, Q8TEW8; test: holdup assay; parameters: key: below the threshold = too weak to quantify, mostly under pKd 3.1 to 4; settings: plain residues with an end cap or a label only (N-terminal biotin on a linker: ado-ado)

pKd | Binder
below the threshold | GDGLDDEIAV [NOS1AP, O75052]
below the threshold | NRVDSKETEC [ADAM17, P78536]

target: MAGI2_6, Q86UL8; test: holdup assay; parameters: key: below the threshold = too weak to quantify, mostly under pKd 3.1 to 4; settings: plain residues with an end cap or a label only (N-terminal biotin on a linker: ado-ado)
Sequence (Q86UL8 1141-1229): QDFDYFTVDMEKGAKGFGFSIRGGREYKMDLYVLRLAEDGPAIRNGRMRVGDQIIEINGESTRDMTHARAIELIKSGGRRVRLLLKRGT

pKd | Binder
below the threshold | GDGLDDEIAV [NOS1AP, O75052]
4.06 | NRVDSKETEC [ADAM17, P78536]

target: DLG2_2, Q15700; test: holdup assay; parameters: key: below the threshold = too weak to quantify, mostly under pKd 3.1 to 4; settings: plain residues with an end cap or a label only (N-terminal biotin on a linker: ado-ado)
Sequence (Q15700 189-283): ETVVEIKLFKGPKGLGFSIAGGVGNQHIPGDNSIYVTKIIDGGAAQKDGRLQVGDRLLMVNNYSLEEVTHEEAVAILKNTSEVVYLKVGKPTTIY

pKd | Binder
below the threshold | GDGLDDEIAV [NOS1AP, O75052]
4.25 | NRVDSKETEC [ADAM17, P78536]

target: T4, LNX2_2, Q8N448; test: holdup assay; parameters: key: below the threshold = too weak to quantify, mostly under pKd 3.1 to 4; settings: plain residues with an end cap or a label only (N-terminal biotin on a linker: ado-ado)

pKd | Binder
4.37 | GDGLDDEIAV [NOS1AP, O75052]
3.5 | NRVDSKETEC [ADAM17, P78536]

target: SCRIB_2, Q14160; test: holdup assay; parameters: key: below the threshold = too weak to quantify, mostly under pKd 3.1 to 4; settings: plain residues with an end cap or a label only (N-terminal biotin on a linker: ado-ado)
Sequence (Q14160 857-960): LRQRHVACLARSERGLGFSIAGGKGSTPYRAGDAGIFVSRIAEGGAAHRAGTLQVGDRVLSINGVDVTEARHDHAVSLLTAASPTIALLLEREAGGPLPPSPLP

pKd | Binder
below the threshold | GDGLDDEIAV [NOS1AP, O75052]
below the threshold | NRVDSKETEC [ADAM17, P78536]

target: HTRA1, Q92743; test: holdup assay; parameters: key: below the threshold = too weak to quantify, mostly under pKd 3.1 to 4; settings: plain residues with an end cap or a label only (N-terminal biotin on a linker: ado-ado)
Sequence (Q92743 360-477): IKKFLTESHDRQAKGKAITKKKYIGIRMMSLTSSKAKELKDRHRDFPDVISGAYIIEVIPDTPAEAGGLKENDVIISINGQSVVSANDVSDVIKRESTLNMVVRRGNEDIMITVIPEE

pKd | Binder
4.68 | GDGLDDEIAV [NOS1AP, O75052]
3.56 | NRVDSKETEC [ADAM17, P78536]

target: T5, DFNB31_3, Q9P202; test: holdup assay; parameters: key: below the threshold = too weak to quantify, mostly under pKd 3.1 to 4; settings: plain residues with an end cap or a label only (N-terminal biotin on a linker: ado-ado)

pKd | Binder
below the threshold | GDGLDDEIAV [NOS1AP, O75052]
3.92 | NRVDSKETEC [ADAM17, P78536]

target: PDLIM1, O00151; test: holdup assay; parameters: key: below the threshold = too weak to quantify, mostly under pKd 3.1 to 4; settings: plain residues with an end cap or a label only (N-terminal biotin on a linker: ado-ado)
Sequence (O00151 1-87): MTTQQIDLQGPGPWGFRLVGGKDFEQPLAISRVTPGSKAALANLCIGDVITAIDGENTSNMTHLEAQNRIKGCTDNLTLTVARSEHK

pKd | Binder
below the threshold | GDGLDDEIAV [NOS1AP, O75052]
below the threshold | NRVDSKETEC [ADAM17, P78536]

target: MAGI2_3, Q86UL8; test: holdup assay; parameters: key: below the threshold = too weak to quantify, mostly under pKd 3.1 to 4; settings: plain residues with an end cap or a label only (N-terminal biotin on a linker: ado-ado)
Sequence (Q86UL8 600-682): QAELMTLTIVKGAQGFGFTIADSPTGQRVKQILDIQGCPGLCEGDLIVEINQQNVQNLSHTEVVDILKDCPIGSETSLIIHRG

pKd | Binder
below the threshold | GDGLDDEIAV [NOS1AP, O75052]
3.64 | NRVDSKETEC [ADAM17, P78536]

target: GRID2IP_1, A4D2P6; test: holdup assay; parameters: key: below the threshold = too weak to quantify, mostly under pKd 3.1 to 4; settings: plain residues with an end cap or a label only (N-terminal biotin on a linker: ado-ado)
Sequence (A4D2P6 1-87): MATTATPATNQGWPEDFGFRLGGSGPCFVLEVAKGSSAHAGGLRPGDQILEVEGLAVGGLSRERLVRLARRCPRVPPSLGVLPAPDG

pKd | Binder
below the threshold | GDGLDDEIAV [NOS1AP, O75052]
below the threshold | NRVDSKETEC [ADAM17, P78536]

target: SCRIB_3, Q14160; test: holdup assay; parameters: key: below the threshold = too weak to quantify, mostly under pKd 3.1 to 4; settings: plain residues with an end cap or a label only (N-terminal biotin on a linker: ado-ado)
Sequence (Q14160 999-1103): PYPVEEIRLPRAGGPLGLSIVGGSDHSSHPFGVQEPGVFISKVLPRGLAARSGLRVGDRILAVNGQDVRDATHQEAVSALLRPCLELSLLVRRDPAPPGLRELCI

pKd | Binder
below the threshold | GDGLDDEIAV [NOS1AP, O75052]
4.58 | NRVDSKETEC [ADAM17, P78536]

target: T6, SIPA1L2, Q9P2F8; test: holdup assay; parameters: key: below the threshold = too weak to quantify, mostly under pKd 3.1 to 4; settings: plain residues with an end cap or a label only (N-terminal biotin on a linker: ado-ado)

pKd | Binder
below the threshold | GDGLDDEIAV [NOS1AP, O75052]
below the threshold | NRVDSKETEC [ADAM17, P78536]

target: NOS1, P29475; test: holdup assay; parameters: key: below the threshold = too weak to quantify, mostly under pKd 3.1 to 4; settings: plain residues with an end cap or a label only (N-terminal biotin on a linker: ado-ado)
Sequence (P29475 9-101): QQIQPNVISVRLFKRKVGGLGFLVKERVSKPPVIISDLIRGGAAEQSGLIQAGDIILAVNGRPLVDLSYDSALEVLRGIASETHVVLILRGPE

pKd | Binder
3.8 | GDGLDDEIAV [NOS1AP, O75052]
below the threshold | NRVDSKETEC [ADAM17, P78536]

target: T7, TIAM2, Q8IVF5; test: holdup assay; parameters: key: below the threshold = too weak to quantify, mostly under pKd 3.1 to 4; settings: plain residues with an end cap or a label only (N-terminal biotin on a linker: ado-ado)

pKd | Binder
3.8 | GDGLDDEIAV [NOS1AP, O75052]
3.92 | NRVDSKETEC [ADAM17, P78536]

target: T8, GRIP1_4, Q9Y3R0; test: holdup assay; parameters: key: below the threshold = too weak to quantify, mostly under pKd 3.1 to 4; settings: plain residues with an end cap or a label only (N-terminal biotin on a linker: ado-ado)

pKd | Binder
below the threshold | GDGLDDEIAV [NOS1AP, O75052]
below the threshold | NRVDSKETEC [ADAM17, P78536]

target: LAP2, Q96RT1; test: holdup assay; parameters: key: below the threshold = too weak to quantify, mostly under pKd 3.1 to 4; settings: plain residues with an end cap or a label only (N-terminal biotin on a linker: ado-ado)
Sequence (Q96RT1 other isoform, or with tags, fused parts or gaps): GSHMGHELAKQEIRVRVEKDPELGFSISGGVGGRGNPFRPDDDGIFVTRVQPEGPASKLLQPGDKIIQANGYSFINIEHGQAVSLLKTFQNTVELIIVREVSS

pKd | Binder
3.67 | GDGLDDEIAV [NOS1AP, O75052]
below the threshold | NRVDSKETEC [ADAM17, P78536]

target: T9, DLG3_1, Q92796; test: holdup assay; parameters: key: below the threshold = too weak to quantify, mostly under pKd 3.1 to 4; settings: plain residues with an end cap or a label only (N-terminal biotin on a linker: ado-ado)

pKd | Binder
below the threshold | GDGLDDEIAV [NOS1AP, O75052]
3.77 | NRVDSKETEC [ADAM17, P78536]

target: T10, MPDZ_10, O75970; test: holdup assay; parameters: key: below the threshold = too weak to quantify, mostly under pKd 3.1 to 4; settings: plain residues with an end cap or a label only (N-terminal biotin on a linker: ado-ado)

pKd | Binder
below the threshold | GDGLDDEIAV [NOS1AP, O75052]
below the threshold | NRVDSKETEC [ADAM17, P78536]

target: NHERF4_2, Q86UT5; test: holdup assay; parameters: key: below the threshold = too weak to quantify, mostly under pKd 3.1 to 4; settings: plain residues with an end cap or a label only (N-terminal biotin on a linker: ado-ado)
Sequence (Q86UT5 220-308): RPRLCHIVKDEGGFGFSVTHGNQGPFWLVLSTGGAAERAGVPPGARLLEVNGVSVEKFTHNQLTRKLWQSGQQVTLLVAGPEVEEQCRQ

pKd | Binder
below the threshold | GDGLDDEIAV [NOS1AP, O75052]
below the threshold | NRVDSKETEC [ADAM17, P78536]

target: Inadl_1, Q8NI35; test: holdup assay; parameters: key: below the threshold = too weak to quantify, mostly under pKd 3.1 to 4; settings: plain residues with an end cap or a label only (N-terminal biotin on a linker: ado-ado)
Sequence (Q8NI35 113-229): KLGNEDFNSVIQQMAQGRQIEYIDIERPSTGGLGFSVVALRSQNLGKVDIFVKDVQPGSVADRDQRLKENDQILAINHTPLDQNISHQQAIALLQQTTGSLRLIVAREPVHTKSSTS

pKd | Binder
below the threshold | GDGLDDEIAV [NOS1AP, O75052]
below the threshold | NRVDSKETEC [ADAM17, P78536]

target: T11, PCLO, Q9Y6V0; test: holdup assay; parameters: key: below the threshold = too weak to quantify, mostly under pKd 3.1 to 4; settings: plain residues with an end cap or a label only (N-terminal biotin on a linker: ado-ado)

pKd | Binder
below the threshold | GDGLDDEIAV [NOS1AP, O75052]
below the threshold | NRVDSKETEC [ADAM17, P78536]

target: DLG4_2, P78352; test: holdup assay; parameters: key: below the threshold = too weak to quantify, mostly under pKd 3.1 to 4; settings: plain residues with an end cap or a label only (N-terminal biotin on a linker: ado-ado)
Sequence (P78352 155-259): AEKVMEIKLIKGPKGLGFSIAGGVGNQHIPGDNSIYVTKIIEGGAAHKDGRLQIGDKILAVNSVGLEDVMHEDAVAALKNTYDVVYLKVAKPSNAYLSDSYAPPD

pKd | Binder
below the threshold | GDGLDDEIAV [NOS1AP, O75052]
4.34 | NRVDSKETEC [ADAM17, P78536]

target: DLG1_1, Q12959; test: holdup assay; parameters: key: below the threshold = too weak to quantify, mostly under pKd 3.1 to 4; settings: plain residues with an end cap or a label only (N-terminal biotin on a linker: ado-ado)

pKd | Binder
below the threshold | GDGLDDEIAV [NOS1AP, O75052]
4.32 | NRVDSKETEC [ADAM17, P78536]
